Measured values from article PMC3025356, “Mechanism of the Ca^2+-Dependent Interaction between S100A4 and Tail Fragments of Nonmuscle Myosin Heavy Chain IIA” (Journal of Molecular Biology, 2011).

Key:
[1] = molecular target: T1, S100A4 (Homo sapiens, UniProt P26447); assay: Quin-2 fluorescence, Ca^2+ dissociation from S100A4 in the presence of target peptides; format: binding
T1 construct: We used full-length S100A4 for this analysis; made in house; host or cells: Escherichia coli BL21(DE3)
Procedure: Ca^2+ dissociation measurements for wild-type S100A4, using Quin-2 as described above, were repeated as a control for the effect of target peptides on this process. On mixing 10 μM S100A4 in the presence of Ca^2+ with 100 μM Quin-2, the observed profile was fitted to a single exponential with kobs = 17 s^− 1 (Fig. 5a; cf. k− 1 in Scheme 1).
Fig. 5 Dissociation of Ca^2+ from S100A4 in the absence and in the presence of target peptides monitored using Quin-2 fluorescence. (a) Mixed with 100 μM Quin-2 was 10 μM S100A4 + 50 μM Ca^2+ (stopped-flow reaction chamber concentrations). A superposed fit to a single exponential yields kobs = 17 s^− 1. […] (d) As in (a), but with 2.5 μM M200 premixed with 5 μM S100A4. A biphasic exponential fit yielded rate constants of 13 s^− 1 (A = 26%) and 0.30 s^− 1 (A = 74%). […] Experiments were carried out in either 20 mM NaCl, 20 mM Tris, 1 mM DTT, and 100 μM Ca^2+ at pH 7.5 and 20 °C (a and b; cf. Malashkevich et al.[17]), or 100 mM NaCl, 10 mM Hepes, and 100 μM Ca^2+ at pH 7.5 and 20 °C (c and d). […] Rate constants were unaffected by the inclusion of 1 mM Mg^2+.
Stopped-flow measurements were carried out using an SX18-MV apparatus (Applied Photophysics Ltd., Leatherhead, UK) with a dead time of 1.5 ms.[40] Records were generally captured on a logarithmic time base. Absorption (turbidity) measurements were usually recorded using a 10-mm pathlength, while fluorescence was recorded with a 2-mm pathlength for excitation and emission. The stated concentrations of components refer to the reaction chamber after mixing, unless otherwise indicated. Tyrosine fluorescence was excited at 280 nm, and the emission was collected through a UG11 bandpass filter plus a 305-nm longpass filter.[18] Fluorescein fluorescence was excited at 480 nm, and the emission was detected through a 515-nm longpass filter. Quin-2 fluorescence was measured by excitation at 336 nm, and emission was collected with a 455-nm longpass filter. For simultaneous recording of light scatter, a second channel was monitored through a UG11 filter. Rate constants were obtained by fitting to single-exponential or double-exponential functions using Kaleidagraph (Synergy Software) or Applied Photophysics Pro-Data software. Modeling of kinetic schemes was performed using Berkeley Madonna software.

[2] = system: M200 filamentous bundles; assay: Electron microscopy of myosin IIA tail fragments; set-up: species or system human
Procedure: Fig. 8 Characterisation of myosin IIA coiled-coil tail fragments. Metal-shadowed electron micrographs of (a) M200 and (b) M111 deposited from 0.5 M ammonium acetate. Scale bar represents 50 nm. (c and d) Electron micrographs of a negatively stained M200 tail fragment. Fields of M200 (c) in the absence and (d) in the presence of a 2-fold molar excess of S100A4, respectively. Arrows point to individual strands emerging from images of filamentous bundles. The samples were prepared in 0.1 M sodium acetate buffer, where M200 formed large filamentous aggregates but were solubilised in the presence of S100A4. Scale bar represents 200 nm (see Materials and Methods for details).
For negative staining, the stock solution of the M200 tail fragment was diluted with a solution consisting of 0.1 M Na-acetate, 3 mM MgCl2, 0.1 mM CaCl2, 10 mM imidazole, and 5 mM NaH2PO4 (pH 7.0), with or without 14 μM S100A4, to give a final concentration of 7 μM M200. Following dilution, 5 μl of the mixture was applied to a grid with a thin carbon film supported by a holey carbon film, and the grid was negatively stained using 1% uranyl acetate. For metal shadowing, the stock solutions of the M200 and M111 tail fragments were diluted with 0.5 M ammonium acetate solution to give a final concentration of 5 μM protein. This was mixed with an equal volume of glycerol, and the resulting mixture was sprayed onto freshly cleaved mica then rotary shadowed with platinum at an angle of 6°.[46] Grids were examined in a Philips CM120 electron microscope (FEI, Hillsboro, OR) operated at 80 kV. Images were recorded on a 2000 × 2000 F224HD slow-scan CCD camera (TVIPS, Gauting, Germany) at a magnification of 65,000× (0.37 nm pixel^− 1). The lengths of nonoverlapping well-shadowed molecules were measured as described by Burgess et al.[47]

[3] = molecular target: T1, S100A4; assay: Ca^2+ dependence of M200 turbidity in the presence of S100A4; format: biochemical; conditions: 5 μM M200 + S100A4; 100 mM NaCl, 20 mM Hepes, 1 mM Mg^2+, 1 mM EGTA, 1 μM Fura-2; read-out: apparent Kd for Ca^2+ binding
Description: The decrease in fluorescence, […]
that F-M16N binding was slightly faster.
The equilibrium constant (K5) for dissociation of the M200.S100A4.Ca2+ complex The value of K5 (scheme 2) was estimated from two independent experiments. From the competition […]
inhibition in the amplitude of the turbidity change arising from 5 M M200 at saturating Ca2+ concentrations. Under these conditions the free S100A4.Ca2+ concentration is ~ 0.06 M based on K2 = 3 […]
concentration will remain close to its critical concentration (K4 = 0.1 M), so that K5 = 0.1 * 0.06 / 5 ≈ 0.001 M, which represents the binding of S100A4.Ca2+ to free M200.
A second estimate was calculated from the apparent Ca2+ binding constant observed in the turbidity assay
(Fig. S6c). 5 M M200 in the presence of S100A4 and 1 mM EGTA gave a high turbidity in 0.1 M NaCl buffer, as S100A4 binds weakly under these conditions. Addition of aliquots of Ca2+ caused filament dissociation as the free Ca2+ rose, to give an apparent binding constant for Ca2+ of 0.14 M (Fig. S6c). At […]
contained 100 mM NaCl, 20 mM Hepes, 1 mM Mg2+, 1 mM EGTA and 1 µM Fura-2. Ca2+ was added in l aliquots and the turbidity measured (using the 10 mm path length). The free Ca2+ was calculated from the ratio of the Fura-2 340 nm to 362 nm excitation peaks, assuming a Kd of 0.224 M 1, measured between each addition of Ca2+ (using the 2 mm path length for excitation).

[4] = 2.5 μM M200 premixed with 5 μM S100A4

T1 sequence (P26447 whole entry): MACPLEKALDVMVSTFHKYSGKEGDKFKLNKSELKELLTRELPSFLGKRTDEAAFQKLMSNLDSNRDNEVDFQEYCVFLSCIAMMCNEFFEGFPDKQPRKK

B1: M200: His-tagged human NM-MHC IIA residues Q1761-E1960, V1913I substitution (protein, UniProt P35579 1761-1960, looked up, variant V1913I)
chain: QINTDLNLERSHAQKNENARQQLERQNKELKVKLQEMEGTVKSKYKASITALEAKIAQLEEQLDNETKERQAACKQVRRTEKKLKDVLLQVDDERRNAEQYKDQADKASTRLKQLKRQLEEAEEEAQRANASRRKLQRELEDATETADAMNREISSLKNKLRRGDLPFVVPRRMARKGAGDGSDEEVDGKADGAEAKPAE
modifications: His tag
notes: His-tagged human NM-MHC IIA residues Q1761-E1960, V1913I substitution
[1]; [4]
  fast-phase amplitude: 26%
  slow-phase amplitude: 74%
[1]; 2.5 μM M200 premixed with 5 μM S100A4, 100 mM NaCl
  slow-phase rate constant: 0.30 s^− 1
[1]; 2.5 μM M200 premixed with 5 μM S100A4, 100 mM NaCl, 10 mM Hepes, 100 μM Ca^2+, pH 7.5, 20 °C
  fast-phase rate constant: 13 s^− 1
[1]; in presence of coiled-coil fragments
  slower release of Ca^2+: 0.3–0.5 s^− 1
[1]; peptide–S100A4–Ca^2+ complex
  Ca^2+ dissociation rate constant from complex (k− 3), comparison: 0.3 s^− 1
[2]; 0.1 M Na-acetate
  filamentous bundle width: ~100 nm
  individual strand width: about 10 nm
[2]; metal shadowed, 0.5 M ammonium acetate, mean ± SD, n = 132
  mean length of coiled coil: 26.4 ± 2.03 nm
[3]
  Kd: 140 nM
